experiment: soluble on expression in E. coli; label from the status in PepcDB or PDB records

| Sequence | soluble on expression in E. coli |
| --- | --- |
| MGCAGSTQSQADGSVKKIRKPKPWKHTQPITKAELMKLREEFWDTAPHYGGRKEIWDALRAAAEADISLAQAIVDSAGVIVQNTDLTVCYDERGAKYELPKYVLSEPTNLEEEN | not soluble |
| VPRGSAKGDGVTDDTAALTSALNDTPVGQKINGNGKTYKVTSLPDISRFINTRFVYERIPGQPLYYASEEFVQGELFKITDTPYYNAWPQDKAFVYENVIYAPYMGSDRAGVSRLHVSWVKSGDDGQTWSTPEWLTDLHPDYPTVNYHCMSMGVCRNRLFAMIETRTLAKNALTNCALWDRPMSRSLHLTGGITKAANQRYATIHVPDHGLFVGDFVNFSNSAVTGVSGDMTVATVIDKDNFTVLTPNQQTSDLNNAGKNWHMGTSFHKSPWRKTDLGLIPSVTEVHSFATIDNNGFAMGYHQGDVAPREVGLFYFPDAFNSPSNYVRRQIPSEYEPDASEPCIKYYDGVLYLITRGTRGDRLGSSLHRSRDIGQTWESLRFPHNVHHTTLPFAKVGDDLIMFGSERAENEWEAGAPDDRYKASYPRTFYARLNVNNWNADDIEWVNITDQIYQGGIVNSGVGVGSVVVKDNYIYYMFGGEDHFNPWTYGDNSAKDPFKSDGHPSDLYCYKMKIGPDNRVSRDFRYGAVPNRAVPVFFDTNGVRTVPAPMEFTGDLGLGHVTIRASTSSNIRSEVLMEGEYGFIGKSIPTDNPAGQRIIFCGGEGTSSTTGAQITLYGANNTDSRRIVYNGDEHLFQSADVKPYNDNVTALGGPSNRFTTAYLGSNPIVT | soluble |
| MVFLDPIHRIDVVTLSELSRLGFRRSGDFVYRPECHLCRQCLSCRVPVADFQMNSMQKKAWKRNQDLTMTVLPTRQASQIHYDLYERYINERHADGDMFPPSLDQFEKFLVHSCTDSFFLELWKDNRLISVSTCDLMDDGLSAVYTFFDPDEHRRSLGVYSILNQIEYVKTLGLEYVYLGYWVPHSAKMNYKSQYTPLELLLDGQWRRLNRSLSPEEINQLGNSLMTTLPSEWNNLIIKLEHHHHHH | not soluble |
| MAHHHHHHMSSNDGLSEDTVMYIKDNNIGQLMEYILRCIITDKPTKPLEYVHELTASPLPPRVVLAGPPASGKGTQARHICSYYKRAIGKKPVHVSSGDLLRAEVAQGTHLGKIAENFMQRGELVPDSLIISIIRNRLTQEDAVMNGWLLDGFPRTRSQAIALDAAGLCPRIFVVLDTPDDVLFGRVEGRRTDPVTGIIYHLKYNPPPENDTALLERLQHRDDDTREVLGPRLETYHSMVEGLLDYYGSIMYHVDGNRPEAAITKDITEYLQNHNVA | soluble |
| MPAENIVEVHHLKKSVGQGEHELSILTGVELVVKRGETIALVGESGSGKSTLLAILAGLDDGSSGEVSLVGQPLHNMDEEARAKLRAKHVGFVFQSFMLIPTLNALENVELPALLRGESSAESRNGAKALLEQLGLGKRLDHLPAQLSGGEQQRVALARAFNGRPDVLFADEPTGNLDRQTGDKIADLLFSLNREHGTTLIMVTHDLQLAARCDRCLRLVNGQLQEEA | soluble |
| MGSDKIHHHHHHMNPPKRLLVIHRALAPYRIELLNTLSAAFDTHIYFEFASPIEQRFDAGELAKRVHFQSSVLPPAPKIPGLKNFRPYAASLVRSLRPDVVLCSEFNLLTLTLTAASRLFSPKTKLYVLCDDNEQMAEAELHYGRGLKHRMLSYVEGVILCDSRACDLYASRFATLDRERFVYLPIVQDEKVLRPLYEQVFGIGRDLRHALIPAGARMILYVGRLSEEKNLPALIDNLSTLPDDVHLVIVGDGPMQSALMNQVQATGHPERIIFAGKKEGAELYAYYTQADCLVLPSMRECFGSVVNEALIAGVPVVCSDIAGASCLVTESNGRTFSPMLPNALSQACNDLLGSIAPFCGDSLRPSLMPFTFERAIAPVLSLLSR | not soluble |
| AIAELFTLGACRQVGKSCFVLKTSEGLVMLDCGLHPSYQDDRRYPNFSLAFSYGPLKAVFITHCHADHVGALPILTERWGYDGPIYMSEPTRKLSYYILEECVGSWGGDDEWTDSSRSEWSYTQREVESCLTKVTIMEPGQSISVGENVQVHSWMAGHVLGAYMFSIVVDNHRILYTGDFTSCPTFHLPPARVDDIPYPPDVILSEATYATSFKDGRLNNQVEFIQNVLDCLLDGGKVLVPVFAIGRAQELLLLLGK | soluble |
| QSILQDLFLLLIKFPKEEKTVEVFDTSPKIQLSNYEQYRQDALLAKAEGEQNKINTVLSYTEKTLAPYVVESELSNLCTQISHFLSSDWKEEECREIKISSQLKSIDLMHFGWNIAQPFGKSRKEISTFLKYTFAHALEDVEVSTLQRKLTNTEGKFLIPLQEKLSTESYSSS | not soluble |
| MGSDKIHHHHHHMVDNPGNLNSFRALALQVTCHAVNQASDRQEAGLMMHNTINRLAQQIAASIAFIGFDCRLIVLPEYFLTGFPMGEPLQVWADKACLEINGAEYEALGMIAQKQQIFLAGNAYELDPNFPGLYFQTCFVIDPSGSVVLRYRRLNSLFAPTPHDVWDKYLDCYGLEGVFPVAKTAIGNLAALASEEILYPEVARCLAMRGAEIFLHSTSEVYSKNLTPKDAAKITRAVENMAYVVSANSAGLANSAIPIGSVDGGSKIIDHRGIILAETGPGESMAAFAEIDLAALRRDRTRPGLNNLLSRQRFEMYAQSYSQAKFYPANTMLNKEIERKHFIQTQQETIERLTRLGII | not soluble |
| MGSDKIHHHHHHMKFYEDGNIPEIPNMYFIYGDGGTGKTSLLKQLKGHKFVFSFDMSSNVLIGDKDVDVVIFEHNDAPNIQAMVEECIIRAIQNAKYQVIVLDNVTALQNLVLENIDNAAKDNRQNYQKLQLWFRDLGTILKESGKTIYATAHQLDNGSSGISGEGRFQADMNEKTFNAFTSMFDLVGRIYLAAGERMIDLDPEKGNHAKNRLDDRKLIKANELIQSEKGEK | not soluble |
| MGSDKIHHHHHHMNLNALIDFMLVANNEGLGKASRASGISKATLSRRIADLEEQLGVRLIERSARGLKLTEAGEMLMARTEGPLGEVAEAMTATRDGVATPRGRLRVASPVLFSQLAMGRIGAGFYAAYPEVIIEVTAEDRLVDLVEEQFDVAIRINPDPDSRLVGRCFARDRLVVVAAPELPRPMPGAIRQTPAIVTSSFQPTHWKLDNGHLVLKPIPKLWFSSLMMVRDAAVAGGGAALIPQSIAWSQLASGQLVQWGTVSGAEPELWVLHTSRRLVSPKVRAFVDFICASNPDMSLVLKG | not soluble |
| MLIVLPPSETKAVGGKNPAIDFDSLHFPTLNPIRKEIAHDLARLDISQAQEILKLSQKLLPEAQRNIELFQSPTMPAVLRYTGVLYDALDATSLPSSTWEHLAIGSALFGVVMANDNIPHYRLSGTTKLPCADASVPTLKRRWGNAISTALSDTNEVILDLRSGTYQQLGKVKHAITVRVESEDSDGKRSVISHFNKHYKGQLARALLLHDVTPDPDHAIEDLIGMTQECGFAVEHSKPHELTVVITQ | not soluble |
| MGSDKIHHHHHHMATLETLDLSAGFAADLVQATEADAVTGYRRFHLGAFAFQRDEYFVKISWPAKGSTRTHAIPADAFLRAMMRDVAWGFFYGWVNFDHVFGTRNHYGKVDVYAGTFNGILKEAGVDYTETFETPTIMATFKAMLHDWTNEGFDPFAAPEETGTAFGRKHGENGAAIERTRIATRRMPGLEGDSPLRDELPVNRAFRDVGQDEPEVHVKPGFEGELHAFNLFKYLSRSDVTWNPSVTSVCGRSLFCPTTEEFILPVFHGNDRVEWFLQLSDEIVWDIGDKNTGAPRARITMRAGDICAMPADIRHQGYSTKRSMLLVWENATPDLPQRYESGELAPYPIAF | not soluble |
| MGSDKIHHHHHHMNVYEKGNGVILEGVTDFDPVHIFECGQCFRWHKQEDGSYTGVAKGRILNVKKENDKIYLNNTNLKEFNSIWYNYFDLGTDYTEIKNKLKNMDEYLNKATEFGWGIRILRQDGWEMLISFIISSNNRIPMIQRAIENLSRKFGKYIGEYEGNEYYAFPTPEELNKASQEEIRACQTGFRDKYIKSTTQAVIENNDEVSEYTNLSTEDCRKELLKFNGVGPKVCDCIALFGMQKYDSFPVDVWVKRVMQEFYIDEDMSLPKMRTYGIDKFKEMSGFAQQYLFYYARELGIGK | not soluble |

Source: the DeepSol protein solubility set
